Reference: patent publication US20180021429A1, “ANTICANCER AGENTS OR ANTIMETASTATIC AGENTS USING FSTL1 AND COMBINATION DRUG THEREOF” (PHARMA FOODS INTERNATIONAL CO., LTD., priority 2015, published 2018)
Positions count from the first letter of the chain named.

B1: #6-55: chicken-mouse chimeric anti-FSTL1 antibody clone; variable regions SEQ ID NO: 783 (light), 785 (heavy) (antibody, V domains shown)
VH: AVTLDESGGGLQTPGGALSLVCKGSGFTFTSVTMQWVRQAPGKGLEWVASVCSGSSTYYAPAVKGRATISRDNGQSTVRLQLSNLRPEDTGTYYCAKIAGRARWSCTSAAYNIDAWGHGTEVIVSS
VL: ASTQPSSVSAIPGETVKITCSGGGNNYGWYQQRSPGSAPVTVIYYNDNRPSNIPSRFSGSTSGSTSTLTITGVQADDEAIYYCGSWDSNTDSGIFGAGTTLTVL
modifications: mouse constant regions
B2: #7-34: chicken-mouse chimeric anti-FSTL1 antibody clone; variable regions SEQ ID NO: 787 (light), 789 (heavy) (antibody, V domains shown)
VH: AVTLDESGGGLQTPGGGLSLVCKASGFTFSSVTMQWVRQAPGKGLEWVASICSGSSTYYGPAVKGRATISRDNGQNTVRLQLNNLRAEDTATYYCAKIVGRGRWSCTSAAYNIDAWGHGTEVIVSS
VL: B1 VL with I11N, R33K, D47N, D76E, I80V, W86Y, D87E, S88G, N89S
modifications: mouse constant regions
B3: #5-43: chicken-mouse chimeric anti-FSTL1 antibody clone; variable regions SEQ ID NO: 779 (light), 781 (heavy) (antibody, V domains shown)
VH: AVTLDESGGGLQTPGGGLSLVCKGSGFTFSSFNMFWVRQAPGKGLEWVAGIGKDGGTGYGAAVDGRATISKDSGQSTLRLQLNNLRAEDTGTYYCAKAAGGCSYDWCGAYTGDIDTWGHGTEVIVSS
VL: ASTQPSSVSANPGEAVKITCSGGSGSYYGWYQQKSPGSAPVTVIYNNNQRPSDIPSRFSGSKSGSTATLTITGVQAEDEAVYFCGGYDSSTGHGGIFGAGTTLTVL
modifications: mouse constant regions
B4: #5-3: chicken-mouse chimeric anti-FSTL1 antibody clone; variable regions SEQ ID NO: 767 (light), 769 (heavy) (antibody, V domains shown)
VH: B3 VH with G17A, T28S, G56V, T57P, G58K, S73N, L78M, Y94F, A109I, T111A
VL: ASTQPSSVSANPGETVKITCSGGSGYYYGWYQQKSPGSVPVTVIYNNNNRPSDIPSRFSGSKSGSTGTLTITGVRAEDEAVYYCGGYDNSGTGIFGAGTTLTVL
modifications: mouse constant regions
B5: #5-8: chicken-mouse chimeric anti-FSTL1 antibody clone; variable regions SEQ ID NO: 771 (light), 773 (heavy) (antibody, V domains shown)
VH: B3 VH with G56V, T57P, G58K, A61T, S73N, L78M, Y94F, A109I
VL: B3 VL
modifications: mouse constant regions
B6: #8-1: chicken-mouse chimeric anti-FSTL1 antibody clone; variable regions SEQ ID NO: 791 (light), 793 (heavy) (antibody, V domains shown)
VH: B3 VH with G17A, G56V, T57P, G58K, S73N, L78M, Y94F, A109I, T111A
VL: B3 VL with T91S
modifications: mouse constant regions
B7: #8-4: chicken-mouse chimeric anti-FSTL1 antibody clone; variable regions SEQ ID NO: 795 (light), 797 (heavy) (antibody, V domains shown)
VH: B3 VH with F29L, I51V, G58A, K71R, L78V, Y94F, D105S, T111V, I114L, T116A
VL: B4 VL with T3S, V39A, N48D, R50K, R75Q, A76V, Y83F
modifications: mouse constant regions
B8: #8-7: chicken-mouse chimeric anti-FSTL1 antibody clone; variable regions SEQ ID NO: 799 (light), 801 (heavy) (antibody, V domains shown)
VH: B3 VH with G56V, T57P, G58K, S73N, Y94F, A109I, T111A
VL: B3 VL
modifications: mouse constant regions
B9: #5-2: chicken-mouse chimeric anti-FSTL1 antibody clone; variable regions SEQ ID NO: 763 (light), 765 (heavy) (antibody, V domains shown)
VH: B3 VH with I51V, S73N, D105G, A109S, T111V, T116A
VL: B3 VL
modifications: mouse constant regions

What follows are molecules tested on mouse bone marrow cells (assay: Inhibition of induction of mesenchymal stem cells (MSC) by FSTL1 in mouse bone marrow cells (Examples 4, 6, 8, 12)). Details: Example 4: 50 ng/mL FSTL1, 10 μg/mL antibody, 11 days; vs control anti-DNP antibody.
Format: cell-based
Experimental: It is known that when bone marrow cells are stimulated with FSTL1, mesenchymal stem cells (MSCs) having pluripotency or self-proliferative capacity grow (Cancer Research 73: 6185, 2013). Thus, 2×10^7 cells/well of bone marrow cells collected from the thigh bone of a C57BL/6 mouse were suspended in 3 mL/well of RPMI1640 (GIBCO/Thermo Fisher Scientific Inc., Cat. No. C11875500BT) medium containing 2% fetal bovine serum, supplemented with 50 ng/mL (final concentration) of FSTL1 (R&D Systems, Inc. Cat#1694-FN-050) and 10 μg/mL of the anti-FSTL1 antibody (#5-2, […], #5-8, #5-10, #5-43, #6-55, or #7-34) or its isotype mouse IgG (anti-DNP antibody) as a control antibody “Control”, and cultured under stimulation (6-well plate). 11 days thereafter, the number of cells was counted while the cells were stained with a PE-labeled anti-ALCAM antibody (eBioscience, Cat. No. 12-1661-82) and a PE-labeled anti-PDGFRA antibody (eBioscience, Cat#12-1401-81) in order to examine the expression of MSC markers, and the contents of ALCAM-positive cells and PDGFR-positive cells were analyzed by flow cytometry using FACScan (Becton, Dickinson and Company, Code. BECTON-DICKINSON-FACSCAN) to calculate the number of each positive cell per culture.
(§1) Mouse bone marrow cells prepared in the same way as in Example 4 were supplemented with 50 ng/mL (final concentration) of FSTL1 and 10 μg/mL of the anti-FSTL1 antibody (#5-2, #5-3, #5-8, #5-10, #5-43, #6-55, or #7-34) or a control antibody anti-DNP antibody and cultured under stimulation. 11 days thereafter, the number of cells was counted while the cells were stained with a PE-Cy5-labeled anti-CD45 antibody (BD Pharmingen/Becton, Dickinson and Company, Cat. No. 555484), and the content of CD45− negative cells reported to generally contain MSCs at a high rate was analyzed by flow cytometry using FACScan to calculate the percentage and number of MSCs per culture (FIG. 99A).
as §1, with “20” for “50”, “#8-1, #8-4, #8-7, and #8-8)” for “or #7-34)”, “8” for “11”, “antibody,” for “antibody (BD Pharmingen/Becton, Dickinson and Company, Cat. No. 555484),”, “cells” for “cells reported to generally contain MSCs at a high rate”, “100A).” for “99A).”
Mouse bone marrow cells prepared in the same way as in Example 4 were supplemented with 20 ng/mL (final concentration) of FSTL1 and 10 μg/mL of the anti-FSTL1 antibody (#5-2, #5-8, #6-55, […], #8-1, #8-4, #8-7, or #8-8) or a control antibody anti-DNP antibody and cultured under stimulation. 8 days thereafter, the number of cells was counted while the cells were stained with a PE-Cy5-labeled anti-CD45 antibody, and the content of CD45− negative cells was analyzed by flow cytometry using FACScan to calculate the percentage and number of MSCs per culture (FIG. 101).

Molecule	inhibitory activity against the expansion of ALCAM-positive cells and PDGFRA-positive cells by FSTL1
B1	slightly strong tendency of inhibitory activity
B2	slightly strong tendency of inhibitory activity
B3	slightly strong tendency of inhibitory activity

Same assay, conditions: Example 6: 50 ng/mL FSTL1, 10 μg/mL antibody, 11 days; FIG. 99A

Molecule	inhibitory activity against the expansion of CD45-negative cells by FSTL1
B2	higher inhibitory activity and substantially completely inhibited the action of FSTL1
B3	higher inhibitory activity and substantially completely inhibited the action of FSTL1
B4	higher inhibitory activity and substantially completely inhibited the action of FSTL1

Same assay, conditions: Example 8: 20 ng/mL FSTL1, 10 μg/mL antibody, 8 days; FIG. 100A

Molecule	inhibitory activity against the expansion of CD45-negative cells by FSTL1
B1	exhibited inhibitory activity
B3	exhibited inhibitory activity
B5	exhibited inhibitory activity
B6	exhibited inhibitory activity
B7	exhibited inhibitory activity

Same assay, conditions: Example 12: 20 ng/mL FSTL1, 10 μg/mL antibody, 8 days; FIG. 101

Molecule	inhibitory activity against the expansion of CD45-negative cells by FSTL1
B1	higher inhibitory activity was confirmed in the order of #7-34, #5-2, #6-55, and #8-7
B2	higher inhibitory activity was confirmed in the order of #7-34, #5-2, #6-55, and #8-7
B8	higher inhibitory activity was confirmed in the order of #7-34, #5-2, #6-55, and #8-7
B9	higher inhibitory activity was confirmed in the order of #7-34, #5-2, #6-55, and #8-7
